This is an account of results in patent CN105968201A (UNIV NANCHANG, dated 2016).

The target in one assay is T1, 重组表达的PSMA胞外区蛋白 (UniProt Q04609 44-750, limits assumed).
T1 construct: extracellular domain; Expressed from vector pRAG2a in HEK-293 cells, purified with HisTrap FF Crude and detected with an anti-His antibody; also called 前列腺特异性膜抗原膜外区; PSMA蛋白
The experiment in a line: indirect phage ELISA, PSMA extracellular region coated at 5 μg/mL, HRP-anti-M13 detection. (In general: ELISA stands for enzyme-linked immunosorbent assay.)

Assay [1] has as its target T2, 前列腺特异性膜抗原 (PSMA) on LNCaP cells (UniProt Q04609 1-750, limits assumed).
T2 construct: whole, on cells; Cells were fixed with 4% paraformaldehyde before the assay; also called prostate specific membrane antigen; LNCaP细胞(表达PSMA)
Kind of assay: cell ELISA and immunofluorescence on fixed LNCaP cells (PSMA-positive) against MKN45 cells (PSMA-negative), anti-M13 detection.

T1 sequence (Q04609 44-750 limits assumed): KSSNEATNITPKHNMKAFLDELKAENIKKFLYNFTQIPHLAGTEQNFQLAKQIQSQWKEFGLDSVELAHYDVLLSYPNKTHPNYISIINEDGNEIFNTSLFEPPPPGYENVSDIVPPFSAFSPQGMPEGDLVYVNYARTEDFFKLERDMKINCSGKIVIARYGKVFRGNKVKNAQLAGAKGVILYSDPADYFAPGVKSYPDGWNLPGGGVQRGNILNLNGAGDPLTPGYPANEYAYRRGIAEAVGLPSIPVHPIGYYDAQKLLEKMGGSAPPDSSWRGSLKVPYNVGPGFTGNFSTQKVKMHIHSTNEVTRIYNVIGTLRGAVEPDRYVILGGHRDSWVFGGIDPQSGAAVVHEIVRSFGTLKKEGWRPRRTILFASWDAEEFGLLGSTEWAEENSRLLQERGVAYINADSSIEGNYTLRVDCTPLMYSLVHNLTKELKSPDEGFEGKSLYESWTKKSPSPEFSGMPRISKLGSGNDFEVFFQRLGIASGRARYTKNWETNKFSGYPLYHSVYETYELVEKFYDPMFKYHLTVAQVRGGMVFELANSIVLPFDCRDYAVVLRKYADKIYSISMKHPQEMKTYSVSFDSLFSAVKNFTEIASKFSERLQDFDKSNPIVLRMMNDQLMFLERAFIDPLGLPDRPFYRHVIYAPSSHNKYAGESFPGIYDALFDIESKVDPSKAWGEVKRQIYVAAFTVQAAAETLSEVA
T2 sequence (Q04609 whole entry): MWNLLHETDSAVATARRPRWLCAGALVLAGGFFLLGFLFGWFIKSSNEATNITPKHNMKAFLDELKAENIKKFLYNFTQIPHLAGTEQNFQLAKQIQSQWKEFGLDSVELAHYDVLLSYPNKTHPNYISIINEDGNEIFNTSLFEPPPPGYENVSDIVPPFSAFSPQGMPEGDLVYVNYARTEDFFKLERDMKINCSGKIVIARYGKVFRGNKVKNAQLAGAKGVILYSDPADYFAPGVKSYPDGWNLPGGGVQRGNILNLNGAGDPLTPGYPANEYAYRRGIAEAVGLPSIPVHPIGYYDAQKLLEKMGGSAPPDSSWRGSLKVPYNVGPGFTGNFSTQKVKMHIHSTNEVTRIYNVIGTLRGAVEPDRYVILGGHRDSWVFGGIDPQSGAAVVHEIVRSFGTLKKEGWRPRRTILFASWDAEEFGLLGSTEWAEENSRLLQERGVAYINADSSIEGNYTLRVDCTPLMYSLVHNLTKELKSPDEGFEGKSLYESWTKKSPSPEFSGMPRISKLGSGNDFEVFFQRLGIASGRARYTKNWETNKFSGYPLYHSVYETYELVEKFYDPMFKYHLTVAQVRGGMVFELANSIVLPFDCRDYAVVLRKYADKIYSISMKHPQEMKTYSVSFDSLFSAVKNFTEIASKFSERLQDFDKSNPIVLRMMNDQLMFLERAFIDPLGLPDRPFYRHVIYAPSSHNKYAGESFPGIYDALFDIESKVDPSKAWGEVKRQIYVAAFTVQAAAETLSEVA

B1: 抗前列腺特异性膜抗原单域重链抗体噬菌体阳性克隆 (VHH)
VHH: QVQLVESGGGLVQAGGSLRLSCAASGRFSRYAMGWFRQAPGKEREFIASISRSGGTTYYGDSVKGRFTISRDNAKNTVYLQMNTLKAEDTAVYYCAARTKGFGLRGQYHYWGQGTQVTVSS
notes: also called 针对前列腺特异性膜抗原的单域重链抗体阳性克隆; 展示本发明所述纳米抗体的噬菌体克隆
B1: the binding result (in the assay with 重组表达的PSMA胞外区蛋白; in assay [1]) was “binds” each time.
